Measurements from patent US20260097129A1, “ANTIBODY-DRUG CONJUGATE COMPRISING DRUG AND ANTIBODY SPECIFICALLY BINDING TO GRP94 OR ANTIGEN-BINDING FRAGMENT THEREOF” (KOOKMIN UNIVERSITY INDUSTRY ACADEMY COOPERATION FOUNDATION, priority 2022, published 2026).

Columns and labels:
HCT116 cells = assay: Antibody internalization, FabFluor-pH Red labeling, Incucyte live cell imaging; format: cell-based, human
Protocol: Antibody internalization in HCT116 cells was measured using the FabFluor-pH Red Antibody Labeling Reagent (Sartorius, Gottingen, Germany) according to the manufacturer's instructions. […] HCT116 cells were seeded at a density of 10,000 cells/well in a 96-well culture plate and allowed to adhere overnight. The control IgG, K101.1, or trastuzumab (MedChemExpress, Princeton, NJ, USA) were individually labeled with the human FabFluor-pH Red antibody labeling reagent at a 1:3 molar ratio in PBS and incubated for 15 minutes. The labeled antibodies were added to the cell culture medium at a final concentration of 2 μg/ml. The plate was transferred to the Incucyte SX1 live cell analysis system (Sartorius) and images were captured with a 10× objective lens for 12 hours. The fluorescence intensity was individually measured for each image.
The internalization of antibodies in HCT116 cells was measured using the FabFluor-pH Red antibody labeling reagent (Sartorius, Göttingen, Germany) according to the manufacturer's instructions. […] However, after internalization of the reagent-labeled antibody, the fluorescence intensity increases under the acidic conditions inside endosomes and lysosomes. HCT116 cells were seeded at a density of 10,000 cells per well in a 96-well culture plate and allowed to attach overnight. […] Fluorescence intensity was then measured.

HT29 = assay: Cell proliferation assay, real-time live cell imaging (Incucyte); format: cell-based, human; conditions: 133 nM K101.1, 33 nM and 133 nM K101.1-Sec-DM1, 62 hours, FIG. 9
Protocol: (§1) To investigate the effect of K101.1-Sec-DM1 on CRC cell growth in vitro, 1×10^4 HT29, LoVo, or 5×10^3 HCT116 CRC cells were seeded in the wells of a 96-well plate and incubated at 37° C. for 16 hours. The cells were then treated with either 133 nM of K101.1 or 33 nM and 133 nM of K101.1-Sec-DM1, with or without the presence of the drug. Cell growth was measured for 62 hours using the Incucyte SX1 live cell analysis instrument (Sartorius).

LoVo = assay: as above; format: cell-based, human; conditions: 133 nM K101.1, 33 nM and 133 nM K101.1-Sec-DM1, 62 hours, FIG. 9
Protocol: as §1

HCT116 = assay: as above; format: cell-based, human; conditions: 133 nM K101.1, 33 nM and 133 nM K101.1-Sec-DM1, 62 hours, FIG. 9
Protocol: as §1

rmGRP94 = rmGRP94 (Mus musculus, UniProt P08113); assay: ELISA binding to immobilized rmGRP94; conditions: immobilized rmGRP94, FIG. 8
rmGRP94, sequence (P08113 22-802): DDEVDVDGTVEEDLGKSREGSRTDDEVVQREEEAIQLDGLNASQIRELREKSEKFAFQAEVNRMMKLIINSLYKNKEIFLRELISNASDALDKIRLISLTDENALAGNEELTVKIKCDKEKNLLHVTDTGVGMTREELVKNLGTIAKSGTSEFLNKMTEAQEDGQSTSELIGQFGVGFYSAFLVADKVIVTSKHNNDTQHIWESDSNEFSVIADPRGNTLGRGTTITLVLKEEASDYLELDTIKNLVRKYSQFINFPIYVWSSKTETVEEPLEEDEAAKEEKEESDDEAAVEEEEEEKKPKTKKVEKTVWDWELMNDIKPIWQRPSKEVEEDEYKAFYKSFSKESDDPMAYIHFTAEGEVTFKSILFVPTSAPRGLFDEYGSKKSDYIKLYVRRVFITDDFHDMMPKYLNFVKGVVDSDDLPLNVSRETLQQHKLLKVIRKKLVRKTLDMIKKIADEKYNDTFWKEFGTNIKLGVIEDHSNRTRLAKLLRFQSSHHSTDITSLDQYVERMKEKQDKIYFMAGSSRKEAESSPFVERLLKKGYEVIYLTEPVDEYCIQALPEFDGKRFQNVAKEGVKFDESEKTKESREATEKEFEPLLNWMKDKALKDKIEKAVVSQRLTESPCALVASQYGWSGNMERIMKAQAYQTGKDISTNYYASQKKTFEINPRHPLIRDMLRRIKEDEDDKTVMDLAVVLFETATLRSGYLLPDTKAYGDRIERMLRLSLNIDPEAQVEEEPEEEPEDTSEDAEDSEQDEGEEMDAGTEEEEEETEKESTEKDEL

rhGRP94 = rhGRP94 (Homo sapiens, UniProt P14625); assay: ELISA binding to immobilized rhGRP94; conditions: immobilized rhGRP94, FIG. 8
rhGRP94, sequence (P14625 22-803): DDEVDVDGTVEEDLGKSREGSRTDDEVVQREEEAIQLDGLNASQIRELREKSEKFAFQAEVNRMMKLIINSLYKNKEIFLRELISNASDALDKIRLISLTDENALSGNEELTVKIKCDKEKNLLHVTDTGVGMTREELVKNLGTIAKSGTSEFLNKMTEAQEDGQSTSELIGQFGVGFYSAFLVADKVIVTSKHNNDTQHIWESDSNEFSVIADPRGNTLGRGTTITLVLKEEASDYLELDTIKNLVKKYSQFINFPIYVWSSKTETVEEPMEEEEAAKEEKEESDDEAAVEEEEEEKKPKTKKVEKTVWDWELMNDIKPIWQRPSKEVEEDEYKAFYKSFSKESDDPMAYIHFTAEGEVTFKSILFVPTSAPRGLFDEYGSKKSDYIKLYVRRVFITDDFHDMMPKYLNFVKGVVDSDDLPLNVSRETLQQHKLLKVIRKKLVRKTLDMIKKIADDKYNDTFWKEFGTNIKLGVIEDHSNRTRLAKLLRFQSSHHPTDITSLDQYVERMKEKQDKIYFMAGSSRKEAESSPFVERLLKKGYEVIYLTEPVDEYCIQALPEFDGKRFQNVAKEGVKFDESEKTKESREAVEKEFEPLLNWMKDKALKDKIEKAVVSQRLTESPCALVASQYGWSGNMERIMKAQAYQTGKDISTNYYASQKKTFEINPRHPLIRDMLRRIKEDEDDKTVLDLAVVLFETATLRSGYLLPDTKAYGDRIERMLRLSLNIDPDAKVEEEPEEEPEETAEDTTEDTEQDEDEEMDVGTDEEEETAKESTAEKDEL
Protocol: (§2) A 96-well microplate was coated with 0.1 μg of rhGRP94 and incubated at 4° C. for 16 hours. After blocking the plate with 3% (w/v) BSA in PBS at 37° C. for 2 hours, the plate was incubated with 20 µg/mL of K101.1-Sec (SelT) at 37° C. for 2 hours. After washing the plate three times with PBS-T, it was incubated with HRP-conjugated anti-human Fc secondary antibody (1:5,000; Invitrogen) or HRP-conjugated anti-HA antibody (1:3,000; Bethyl Laboratories, Montgomery, TX, USA) at 37° C. for 1 hour. The color reaction was initiated with 100 μL of TMB substrate solution and terminated with 2N H2SO4 solution. Optical density was measured at 450 nm using a microplate reader.
as §2, with “blocking” for “blocking the plate”, “20 μg/mL” for “20 µg/mL”, “washing” for “washing the plate”, “PBS-T, the plate” for “PBS-T, it”, “Invitrogen)” for “Invitrogen) or HRP-conjugated anti-HA antibody (1:3,000; Bethyl Laboratories, Montgomery, TX, USA)”

Row | Molecule | antibody internalization (FabFluor fluorescence intensity) (HCT116 cells; labeled antibody 2 μg/mL, imaged for 10 hours, Example 2, FIG. 10) | antibody internalization (FabFluor red fluorescence intensity) (HCT116 cells; labeled antibody 2 μg/ml, imaged for 12 hours, Example 1, FIG. 1) | effect on CRC cell growth (HT29) | effect on CRC cell growth (LoVo) | effect on CRC cell growth (HCT116) | antigen binding by ELISA compared with parent antibody K101.1 (rmGRP94) | antigen binding by ELISA compared with parent antibody K101.1 (rhGRP94)
1 | K101.1: GRP94-specific IgG antibody, CDRs SEQ ID NO: 1-6, VH SEQ ID NO: 7, VL SEQ ID NO: 8 (antibody, V domains shown) VH: EVQLLESGGGLVQPGGSLRLSCAASGFTFSNYSMSWVRQAPGKGLEWVSGIYYGSGNKYYADSVKGRFTISRDNSKNTLYLQMNSLRAEDTAVYYCAKNLASFDYWGQGTLVTVSS VL: QSVLTQPPSASGTPGQRVTISCSGSSSNIGSNSVNWYQQLPGTAPKLLIYSNSHRPSGVPDRFSGSKSGTSASLAISGLRSEDEADYYCGTWDSSLSGYVFGGGTKLTVL | exhibited stronger internalization than trastuzumab | promoted internalization more efficiently than trastuzumab | little to no effect | little to no effect | little to no effect | – | –
2 | K101.1-Sec-DM1 (conjugate, non-natural residues; left off: small tags and cut ends; large carriers) heavy: EVQLLESGGGLVQPGGSLRLSCAASGFTFSNYSMSWVRQAPGKGLEWVSGIYYGSGNKYYADSVKGRFTISRDNSKNTLYLQMNSLRAEDTAVYYCAKNLASFDYWGQGTLVTVSS light: QSVLTQPPSASGTPGQRVTISCSGSSSNIGSNSVNWYQQLPGTAPKLLIYSNSHRPSGVPDRFSGSKSGTSASLAISGLRSEDEADYYCGTWDSSLSGYVFGGGTKLTVL | – | – | significantly and more strongly inhibited the growth | significantly and more strongly inhibited the growth | significantly and more strongly inhibited the growth | no significant difference in antigen binding | no significant difference in antigen binding
